# B1: CPEB3 Ribozyme (parent)
# chain: GGGGGCCACAGCAGAAGCGUUCACGUCGCGGCCCCUGUCAGAUUCUGGUGAAUCUGCGAAUUCUGCUGU
# Variants of: B1
# Experiment: self-cleavage, relative activity (ratio to wild type); higher = more cleavage; co-transcriptional
row,Variant,self-cleavage
1,G11U U64G,0.447
2,A10G G47U,0.919
3,G11A A60C,0.205
4,A10U C18A,0.222
5,A10U C18U,0.883
6,A10U G17A,0.547
7,A10U G14U,0.654
8,A10U G30U,0.733
9,C12A G31U,0.258
10,C12A G31C,0.219
11,C12A G31A,0.419
12,A10G U44G,0.71
13,G11A A51C,0.757
14,G11U U38A,0.687
15,G11U U38G,0.178
16,A10U U67G,1.01
17,A10U U67A,0.997
18,A10G U20A,0.0584
19,A10U C63U,0.969
20,A10G U64G,0.398
21,G11U G48U,0.939

row,Variant,self-cleavage
1,G11U G48A,0.917
2,G11C C45G,0.767
3,G11C C22G,0.18
4,G11A A59C,0.3
5,G11A A59G,0.859
6,C12A C27G,0.171
7,C12A C35G,0.189
8,A10G C45G,0.839
9,G11A U55C,0.493
10,G11U G47U,0.941
11,G11A C57G,0.262
12,A10G G17C,0.106
13,G11A U26G,0.734
14,G11A U26C,0.863
15,C12A U21G,0.0774
16,G11U G68A,0.932
17,A10G U53C,0.333
18,A10G U53A,0.651
19,G11A G25A,0.126
20,A10U G11C,0.892
21,A10U G11A,0.873

row,Variant,self-cleavage
1,A10U C66G,0.924
2,A10U C66A,0.845
3,A10G U61A,0.6
4,G11C C33A,0.547
5,G11C C33U,0.827
6,A10U U43G,0.831
7,A10U U43A,0.941
8,A10U U43C,0.975
9,C12A G25A,0.155
10,C12A G25U,0.1
11,G11C A42C,0.151
12,G11A A13G,0.184
13,G11A A13C,0.182
14,G11A U44A,0.697
15,A10U C12U,0.913
16,A10U C12A,0.707
17,A10U A52U,1.02
18,C12A A23C,0.6
19,C12A C45U,0.72
20,G11C A13G,0.558
21,G11C A13C,0.175

row,Variant,self-cleavage
1,G11C A13U,0.209
2,C12A C66U,0.723
3,G11A G31A,0.838
4,A10U A42C,0.937
5,G11U G14A,0.131
6,G11A U53A,0.533
7,G11A C32U,0.95
8,G11U G50A,0.896
9,G11U U26G,0.635
10,A10U U44A,0.967
11,G11C C63U,0.416
12,G11C A60C,0.299
13,A10U G58A,0.975
14,A10G C29U,0.126
15,A10G C29A,0.324
16,A10G C35U,0.892
17,A10G C35G,0.496
18,A10G C35A,0.197
19,G11U A52C,0.761
20,G11U A52U,0.851
21,G11U U61C,0.271

# — the RNAGym collection of RNA variant scans (doi:10.7554/elife.80360)
